Source: publication PMC8621594

Key:
human C1s (human) [1] = molecular target: human C1s (human)
human C1s (human) [2] = molecular target: human C1s (human); remark: listed apart in the source

recombinant human C1 esterase inhibitor (rhC1INH) from Chinese hamster ovary (CHO) cells, sequence (P05155 23-500): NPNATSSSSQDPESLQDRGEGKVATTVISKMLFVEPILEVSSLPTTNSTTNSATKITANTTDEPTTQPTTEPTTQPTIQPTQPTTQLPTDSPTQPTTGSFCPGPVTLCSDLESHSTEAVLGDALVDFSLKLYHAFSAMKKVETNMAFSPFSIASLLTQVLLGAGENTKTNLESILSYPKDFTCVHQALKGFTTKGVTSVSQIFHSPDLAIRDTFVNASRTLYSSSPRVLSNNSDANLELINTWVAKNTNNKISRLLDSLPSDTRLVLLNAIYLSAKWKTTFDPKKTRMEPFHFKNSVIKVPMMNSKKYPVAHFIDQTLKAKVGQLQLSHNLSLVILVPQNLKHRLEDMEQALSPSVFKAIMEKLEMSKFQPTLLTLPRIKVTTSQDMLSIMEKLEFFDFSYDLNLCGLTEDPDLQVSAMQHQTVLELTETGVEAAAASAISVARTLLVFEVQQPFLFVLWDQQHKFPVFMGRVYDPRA

recombinant human C1 esterase inhibitor (rhC1INH) from Chinese hamster ovary (CHO) cells (from UniProt P05155 23-500) (natural protein)
IC50 of the inhibition of human serum complement (lysis of chicken erythrocytes), rhC1INH 0.0099 to 20.25 IU/mL; printed as activity against human C1-esterase in the blood serum (human C1s (human) [1]): 1.85 IU/mL | Biological Activity, U/mL: inhibition of the C1s subunit, chromogenic method (TECHNOCHROM C1-INH Kit) (human C1s (human) [2]): 175 U/mL | Specific Activity, U/mg: inhibition of the C1s subunit, chromogenic method (TECHNOCHROM C1-INH Kit) (human C1s (human) [2]): 9.5 U/mg
